We go through ten molecules from patent US20240325562A1 (LINXIS B V, published 2024).

A word on the Kd: it is the free concentration of one partner at which half of the binding sites on the other are occupied at equilibrium, for simple one-to-one binding.

Assay [1] deals with T1, recombinant human extracellular domain of IGF2R (human, UniProt P11717 41-2304).
T1 construct: extracellular domain; Recombinant, immobilized on plates; also called hIGF2R-ECD; human IGF2R ectodomain (ECD)
The experiment in a line: direct binding assay of the fluorescent conjugate on immobilized hIGF2R-ECD, one-site specific binding fit. As to the method: (§1) These conjugates were then subjected to direct binding assays on immobilized hIGF2R-ECD, meaning that plates were read out immediately after washing, without additional detection steps. […] For detailed analysis, binding parameters KD and Bₘₐₓ were calculated in Graphpad (version 8.3), using one-site specific binding analysis (FIG. 8D).

For assay [2], the target named is T1, recombinant human extracellular domain …. Kind of assay: binding assay on immobilized hIGF2R-ECD, detection with anti-VHH antibody. Here is the method:
The 15 unique hIGF2R-binding VHH (Example 2.1, FIG. 2) were produced and purified as described in examples 3 and 4. The apparent affinities were determined through binding assay on immobilized hIGF2R-ECD. Briefly, three-fold serial dilution series, starting from 1 μM, of each VHH were plated onto hIGF2R-ECD coated plates. VHH were allowed to bind for two hours after which plates were washed. Then, bound VHH was detected using a VHH-specific IgG antibody, followed by an IRD800CW-conjugated IgG-specific antibody. Plates were read out by fluorimetry.

For assay [3], the target named is T2, full-length human PDGFRB on cells (human, UniProt P09619 33-1106).
T2 construct: whole, on cells; also called hPDGFRB; SCC-hPDGFRB
T2 sequence (P09619 33-1106): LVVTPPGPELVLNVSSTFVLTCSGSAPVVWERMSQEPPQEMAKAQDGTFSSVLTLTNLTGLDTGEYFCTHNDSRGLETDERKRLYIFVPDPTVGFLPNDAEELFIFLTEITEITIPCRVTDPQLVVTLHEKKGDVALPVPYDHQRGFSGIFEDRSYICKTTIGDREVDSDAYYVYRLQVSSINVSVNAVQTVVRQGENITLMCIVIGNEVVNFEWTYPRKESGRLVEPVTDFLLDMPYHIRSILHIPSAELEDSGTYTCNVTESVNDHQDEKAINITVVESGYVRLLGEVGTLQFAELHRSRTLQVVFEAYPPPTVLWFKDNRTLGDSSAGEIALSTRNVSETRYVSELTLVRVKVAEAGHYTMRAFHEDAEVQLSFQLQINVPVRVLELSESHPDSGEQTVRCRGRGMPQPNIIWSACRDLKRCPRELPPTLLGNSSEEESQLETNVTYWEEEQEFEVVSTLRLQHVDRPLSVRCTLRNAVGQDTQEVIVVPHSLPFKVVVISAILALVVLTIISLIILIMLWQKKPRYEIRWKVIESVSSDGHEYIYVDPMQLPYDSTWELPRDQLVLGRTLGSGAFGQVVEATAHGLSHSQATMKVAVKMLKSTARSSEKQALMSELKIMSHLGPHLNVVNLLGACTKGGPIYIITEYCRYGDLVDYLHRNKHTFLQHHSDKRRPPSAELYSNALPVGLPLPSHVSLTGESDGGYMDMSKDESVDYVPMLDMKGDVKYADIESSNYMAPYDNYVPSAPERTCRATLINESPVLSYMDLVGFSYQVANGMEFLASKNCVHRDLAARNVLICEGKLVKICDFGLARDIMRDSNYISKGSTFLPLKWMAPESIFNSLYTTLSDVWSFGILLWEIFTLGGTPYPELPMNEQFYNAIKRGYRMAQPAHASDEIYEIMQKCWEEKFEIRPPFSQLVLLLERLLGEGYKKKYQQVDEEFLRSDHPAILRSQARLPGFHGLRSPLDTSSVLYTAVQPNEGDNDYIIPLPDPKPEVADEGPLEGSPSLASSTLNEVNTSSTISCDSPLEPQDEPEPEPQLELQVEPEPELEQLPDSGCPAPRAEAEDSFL
Kind of assay: binding assay on cells transgenically expressing human PDGFRB, FIG. 15C.

Assay [4] addresses T3, rat IGF2R on cells (rat, UniProt A0A8I6GLL6 43-2479). Kind of assay: cell-based or functional assay.
The target of assay [5] is T4, human IGF2R on cells (human, UniProt P11717 41-2491). The experiment in a line: cell-based or functional assay.
Assay [6] addresses T1, recombinant human extracellular domain …. Kind of assay: direct binding assay of the Alexa Fluor 647 conjugate on hIGF2R-ECD, one-site specific binding fit. As to the method:
as §1
Based on their high affinity and binding to non-overlapping receptor epitopes, VHHs 13F11 and 13E8 were selected for the design of biparatopic and bivalent VHH constructs. Two VHHs were fused with a flexible linker, consisting of three Gly-Gly-Gly-Gly-Ser repeats (FIG. 8A). The sequences were codon optimized for expression in E. coli and obtained as synthesized DNA fragments from GeneArt. The DNA fragments encoding VHHs were cloned into a vector pET28-based vector introducing a C-terminal free cysteine for site-directed conjugation and His6 tag for IMAC purification (FIG. 8A). The VHH constructs were produced and purified as described in example 4. […] In a similar binding assay, IR dye 800 (IRD800) conjugates were prepared (as outlined in example 10.2) of the monomeric VHHs 13F11 and 13E8, the biparatopic VHH construct 13F11-13E8, the reciprocal biparatopic construct 13E8-13F11, the bivalent VHH construct 13F11-13F11, and the non-binding (control-) VHH R2. Conjugated constructs were then subjected to binding assay as described above.

The target is the same in assay [7]. Kind of assay: competition assay on immobilized hIGF2R-ECD, competitor for 13F11-A647. Here is the method:
Biparatopic VHH constructs contain two VHH which bind to a different epitope, i.e. which are non-competitive binders. To identify (a) pair(s) of non-competitive binders, competition assays were performed. In the example shown, an Alexa fluor-conjugate of the high affine VHH 13F11 was used as the reporter VHH (13F11-A647, see example 10.2). In the assay, a non-saturating amount (10 nM) of 13F11-A647 was incubated with immobilized hIGF2R-ECD in the presence or absence of 250 nM unconjugated competitor VHH to allow competition to take place.

Assay [8] has as its target T5, recombinant hPDGFRB ectodomain (human, UniProt P09619 33-532).
T5 construct: extracellular domain; also called hPDGFRB-ECD; human PDGFRB ECD
The experiment in a line: competition ELISA on human PDGFRB ECD, IRDye800-SP26P as reporter and unconjugated SP26P as competitor.

In assay [9] the target is T4, human IGF2R on cells. Kind of assay: binding assay on SCC cells transgenically expressing human IGF2R. Here is the method:
(§2) To examine whether 13F11-13E8 is cross-reactive against rodent IGF2R, the construct as well as its corresponding monomeric VHHs were conjugated to IRDye800CW (F11E8-IRD800, conjugation method as described in example 10.2) and the binding affinity was determined using a binding assay on SCC cells that transgenically expressed either murine IGF2R (mIGF2R), rIGF2R, or hIGF2R (FIGS. 12A-D).

For assay [10], the target named is T3, rat IGF2R on cells. Kind of assay: binding assay on SCC cells transgenically expressing rat IGF2R. As to the method: as §2
For the next assay, the target named is T6, murine IGF2R on cells (murine, UniProt Q07113 36-2483).
T6 construct: whole, on cells; also called mIGF2R
T6 sequence (Q07113 36-2483): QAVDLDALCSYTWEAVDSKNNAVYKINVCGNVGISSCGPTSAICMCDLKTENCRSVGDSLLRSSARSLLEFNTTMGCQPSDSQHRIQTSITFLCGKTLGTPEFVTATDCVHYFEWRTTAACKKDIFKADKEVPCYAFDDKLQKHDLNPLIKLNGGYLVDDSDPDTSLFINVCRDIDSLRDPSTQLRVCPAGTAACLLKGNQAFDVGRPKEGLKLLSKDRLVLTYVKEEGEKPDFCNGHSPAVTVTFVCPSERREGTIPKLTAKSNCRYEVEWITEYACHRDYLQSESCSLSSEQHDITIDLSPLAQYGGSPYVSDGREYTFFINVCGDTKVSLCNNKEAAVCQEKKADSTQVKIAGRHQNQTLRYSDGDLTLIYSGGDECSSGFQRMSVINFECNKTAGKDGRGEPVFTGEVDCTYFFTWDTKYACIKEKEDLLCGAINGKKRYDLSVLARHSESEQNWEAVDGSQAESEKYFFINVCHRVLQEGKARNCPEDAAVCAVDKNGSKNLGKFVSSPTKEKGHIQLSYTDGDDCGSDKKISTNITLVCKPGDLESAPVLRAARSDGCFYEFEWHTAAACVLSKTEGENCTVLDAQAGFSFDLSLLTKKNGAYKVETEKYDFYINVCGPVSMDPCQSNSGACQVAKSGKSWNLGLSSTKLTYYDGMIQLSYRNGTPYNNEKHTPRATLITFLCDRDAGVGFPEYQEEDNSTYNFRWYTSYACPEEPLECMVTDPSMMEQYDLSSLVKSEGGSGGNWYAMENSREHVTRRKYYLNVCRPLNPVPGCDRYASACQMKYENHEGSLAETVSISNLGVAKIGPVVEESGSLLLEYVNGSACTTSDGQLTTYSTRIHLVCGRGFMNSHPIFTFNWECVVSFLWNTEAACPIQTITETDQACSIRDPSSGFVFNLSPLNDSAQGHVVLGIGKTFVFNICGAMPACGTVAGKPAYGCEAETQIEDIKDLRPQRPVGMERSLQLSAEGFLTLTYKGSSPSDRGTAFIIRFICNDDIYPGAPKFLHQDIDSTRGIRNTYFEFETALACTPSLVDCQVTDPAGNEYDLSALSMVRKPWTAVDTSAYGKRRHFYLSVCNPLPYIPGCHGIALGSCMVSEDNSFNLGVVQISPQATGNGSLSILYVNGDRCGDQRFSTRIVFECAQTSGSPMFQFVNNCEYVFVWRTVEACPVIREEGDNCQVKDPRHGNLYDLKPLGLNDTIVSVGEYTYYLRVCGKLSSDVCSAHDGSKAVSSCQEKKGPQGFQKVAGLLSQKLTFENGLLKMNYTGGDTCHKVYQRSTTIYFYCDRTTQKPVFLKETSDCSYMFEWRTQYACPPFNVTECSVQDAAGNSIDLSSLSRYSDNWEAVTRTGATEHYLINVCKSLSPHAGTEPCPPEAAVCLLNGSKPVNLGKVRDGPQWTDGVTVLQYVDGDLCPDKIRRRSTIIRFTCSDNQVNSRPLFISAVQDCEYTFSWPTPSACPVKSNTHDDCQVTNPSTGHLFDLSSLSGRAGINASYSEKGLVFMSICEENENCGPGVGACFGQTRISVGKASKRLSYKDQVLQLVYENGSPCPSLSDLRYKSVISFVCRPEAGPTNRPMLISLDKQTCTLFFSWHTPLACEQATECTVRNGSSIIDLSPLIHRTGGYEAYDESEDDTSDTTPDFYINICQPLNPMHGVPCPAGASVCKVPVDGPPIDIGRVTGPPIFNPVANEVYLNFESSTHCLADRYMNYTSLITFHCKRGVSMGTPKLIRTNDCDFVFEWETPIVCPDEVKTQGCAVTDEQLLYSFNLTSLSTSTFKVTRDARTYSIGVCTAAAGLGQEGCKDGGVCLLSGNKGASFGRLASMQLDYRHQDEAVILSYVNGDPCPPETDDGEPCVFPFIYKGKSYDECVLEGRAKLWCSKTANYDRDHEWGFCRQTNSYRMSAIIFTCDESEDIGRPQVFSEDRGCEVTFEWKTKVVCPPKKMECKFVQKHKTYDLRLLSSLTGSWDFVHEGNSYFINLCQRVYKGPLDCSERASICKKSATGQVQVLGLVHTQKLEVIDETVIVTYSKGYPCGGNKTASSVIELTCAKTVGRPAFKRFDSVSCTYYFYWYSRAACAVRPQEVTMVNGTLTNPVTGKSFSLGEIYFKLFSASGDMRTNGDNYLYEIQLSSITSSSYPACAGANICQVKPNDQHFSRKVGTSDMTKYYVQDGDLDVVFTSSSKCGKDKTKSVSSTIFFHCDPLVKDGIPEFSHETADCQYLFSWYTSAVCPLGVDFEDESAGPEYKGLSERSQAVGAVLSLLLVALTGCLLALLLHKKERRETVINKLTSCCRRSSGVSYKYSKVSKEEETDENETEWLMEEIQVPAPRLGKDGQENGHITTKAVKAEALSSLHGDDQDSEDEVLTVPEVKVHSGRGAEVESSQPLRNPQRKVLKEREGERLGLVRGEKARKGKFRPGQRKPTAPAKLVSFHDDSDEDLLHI
The experiment in a line: binding assay on SCC cells transgenically expressing murine IGF2R. As to the method:
as §2

The target in a further assay is T7, rat serum albumin (rat, UniProt P02770 25-608).
T7 construct: also called RSA
T7 sequence (P02770 25-608 limits assumed): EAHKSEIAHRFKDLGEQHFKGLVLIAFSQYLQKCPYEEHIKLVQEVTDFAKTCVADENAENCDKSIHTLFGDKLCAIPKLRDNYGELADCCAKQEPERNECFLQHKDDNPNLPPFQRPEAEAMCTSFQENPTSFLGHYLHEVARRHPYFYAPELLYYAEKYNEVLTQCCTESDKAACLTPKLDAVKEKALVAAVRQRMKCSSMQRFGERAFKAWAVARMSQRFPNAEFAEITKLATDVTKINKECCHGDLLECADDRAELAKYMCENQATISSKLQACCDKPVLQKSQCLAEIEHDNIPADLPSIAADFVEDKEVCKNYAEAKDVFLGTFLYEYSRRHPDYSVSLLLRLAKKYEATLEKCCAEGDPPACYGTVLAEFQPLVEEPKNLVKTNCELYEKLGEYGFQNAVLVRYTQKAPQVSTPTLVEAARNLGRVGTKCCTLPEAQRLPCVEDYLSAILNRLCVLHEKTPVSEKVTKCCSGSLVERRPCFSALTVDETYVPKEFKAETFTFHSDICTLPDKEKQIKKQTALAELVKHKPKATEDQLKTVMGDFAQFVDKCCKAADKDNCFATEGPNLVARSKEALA
Kind of assay: binding assay of the IRDye800 conjugate on serum albumin.

The target in another assay is T8, mouse serum albumin (mouse, UniProt P07724 25-608).
T8 construct: also called MSA
Described as above.

The next assay deals with T9, human serum albumin (human, UniProt P02768 25-609).
T9 construct: also called HSA
Described as above.

Changes are numbered by the printed parent chain. Some results are limits rather than exact numbers.

T5 sequence (P09619 33-532): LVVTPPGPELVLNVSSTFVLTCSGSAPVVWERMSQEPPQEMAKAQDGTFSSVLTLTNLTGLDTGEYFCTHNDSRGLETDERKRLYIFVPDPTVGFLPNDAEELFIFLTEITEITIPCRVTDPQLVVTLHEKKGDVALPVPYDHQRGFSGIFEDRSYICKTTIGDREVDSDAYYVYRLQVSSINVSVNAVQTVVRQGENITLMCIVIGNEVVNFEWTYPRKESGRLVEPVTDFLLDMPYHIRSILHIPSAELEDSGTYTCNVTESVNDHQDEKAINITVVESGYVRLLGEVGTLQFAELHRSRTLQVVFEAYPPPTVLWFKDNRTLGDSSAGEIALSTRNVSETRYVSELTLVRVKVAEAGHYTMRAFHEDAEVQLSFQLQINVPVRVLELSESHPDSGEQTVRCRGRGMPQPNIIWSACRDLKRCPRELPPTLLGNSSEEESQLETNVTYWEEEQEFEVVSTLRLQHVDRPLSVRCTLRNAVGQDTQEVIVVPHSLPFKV

B1: 13F11-A647 (VHH)
VHH: EVQLVESGGRLVQPGDSLRLSCAASGRTFSDNAMGWFRQAPGKERRFVAGISWAGGSTYYSDSVKGRFTISRDNAKNTVYLQMNSLKPEDTAVYYCAAGLRAWVQRMPKDYNYWGQGTQVTVSS
modifications: Alexa Fluor 647 is coupled by maleimide chemistry to the C-terminal free cysteine of the expression tail. The dye, that cysteine and the tag are not in the letters.
notes: Fluorescent conjugate of monomeric 13F11; also called labelled 13F11
Take B1: the Kd in assay [1] is 1 nM.

B2: 13F11 (VHH)
VHH: B1 VHH
notes: On phage in the phage ELISA; purified from E. coli in the other assays; also called native 13F11; unconjugated 13F11
Turning to B2, the Kd in assay [2] came to 0.23 nM.

B3: SP02P-SP26P (bispecific antibody, not shown: small tags and cut ends)
chain: EVQLVESGGGLVQAGGSLRLSCAASESISSIEQMGWFRQAPGKQRALVAINTYGGRTVYTNSVEGRFTMSRDSAKNMVYLQMTSLEPEDTAVYYCYAQTTAWRGGVWGQGTQVTVSSGGGGSGGGGSGGGGSEVQLVESGGGLVQAGGSLRLSCAASGRSFSSSVMGWFRQTPGKEREFVAATRWTAASTHYADSVKGRFTISRDHAENAVFLQMNSLKPEDTAVYYCAAGNYLDTAQYRYNYWGQGTQVTVSS
notes: also called SP02-SP26P
For the molecule B3, the Kd in assay [3] is < 5 nM.

B4: 13E8-13F11-IRD800 (bispecific antibody, not shown: small tags and cut ends)
chain: EVQLVESGGGLVQAGGSLRLSCAASRSISPMGWYRQAPGKQRELVAIMPSSGPPIYADSVQGRFTISRDNAKNTVYLQMNSLKPEDTAVYYCNVGGGYWGQGTQVTVSSGGGGSGGGGSGGGGSEVQLVESGGRLVQPGDSLRLSCAASGRTFSDNAMGWFRQAPGKERRFVAGISWAGGSTYYSDSVKGRFTISRDNAKNTVYLQMNSLKPEDTAVYYCAAGLRAWVQRMPKDYNYWGQGTQVTVSS
modifications: IRDye 800CW coupled by maleimide to the C-terminal free cysteine, which is not in the letters
B4: the “endocytic rate constant, ke” value with rat IGF2R on cells [4] is ~0.7 min⁻¹; in the assay with human IGF2R on cells [5], ~1.5 min⁻¹.

B5: 13E8-13F11-A647 (bispecific antibody)
chain: B4 chain
modifications: Alexa Fluor 647 coupled by maleimide to the C-terminal free cysteine, which is not in the letters
notes: Biparatopic tandem VHH, reciprocal order; not shown: C-terminal tail: free Cys, possible thrombin site and His6 tag
Take B5: the dissociation constant Kd in assay [6] was 2.5 nM.

B6: 13G10 (VHH)
VHH: EVQLVESGGGLVQAGGSLRLSCAASGLTFSSYTMAWYRQAPGKEREVVAAISSGDSIYHEDSVQGRFIISRDNAKNTVYLQMNSLKAEDTAVYYCRANGPGTYWGQGTQVTVSS
notes: On phage in the phage ELISA; purified from E. coli in the other assays
Regarding B6, the binding result in assay [7] was “binds”.

B7: 13C11 (VHH)
VHH: B6 VHH with D61G
notes: as for B6
For B7, the binding result in [7] is “binds”.

B8: SP26P (VHH)
VHH: EVQLVESGGGLVQAGGSLRLSCAASGRSFSSSVMGWFRQTPGKEREFVAATRWTAASTHYADSVKGRFTISRDHAENAVFLQMNSLKPEDTAVYYCAAGNYLDTAQYRYNYWGQGTQVTVSS
modifications: In the competition assay the reporter copy carried IRDye800 on the C-terminal cysteine, which is not in the letters.
notes: From libraries 3 and 4 (raised against rPDGFRB)
In the case of B8, in [8], the binding result is “binds”.

B9: 13F11-13E8-IRD800 (bispecific antibody)
chain: EVQLVESGGRLVQPGDSLRLSCAASGRTFSDNAMGWFRQAPGKERRFVAGISWAGGSTYYSDSVKGRFTISRDNAKNTVYLQMNSLKPEDTAVYYCAAGLRAWVQRMPKDYNYWGQGTQVTVSSGGGGSGGGGSGGGGSEVQLVESGGGLVQAGGSLRLSCAASRSISPMGWYRQAPGKQRELVAIMPSSGPPIYADSVQGRFTISRDNAKNTVYLQMNSLKPEDTAVYYCNVGGGYWGQGTQVTVSS
modifications: IRDye 800CW coupled by maleimide to the C-terminal free cysteine, which is not in the letters
notes: Biparatopic tandem VHH; also called F11E8-IRD800; IRDye800-conjugated 13F11-13E8 (F11E8); not shown: C-terminal tail: free Cys, possible thrombin site and His6 tag
Regarding B9, the Kd with human IGF2R on cells [9], in the assay with rat IGF2R on cells [10] and with murine IGF2R on cells was < 10 nM in each case. The “endocytic rate constant, ke” value is ~0.7 min⁻¹ with rat IGF2R on cells [4] and ~1.5 min⁻¹ with human IGF2R on cells [5].

B10: 13F11-13E8-ABD-IRD800 (other)
chain: EVQLVESGGRLVQPGDSLRLSCAASGRTFSDNAMGWFRQAPGKERRFVAGISWAGGSTYYSDSVKGRFTISRDNAKNTVYLQMNSLKPEDTAVYYCAAGLRAWVQRMPKDYNYWGQGTQVTVSSGGGGSGGGGSGGGGSEVQLVESGGGLVQAGGSLRLSCAASRSISPMGWYRQAPGKQRELVAIMPSSGPPIYADSVQGRFTISRDNAKNTVYLQMNSLKPEDTAVYYCNVGGGYWGQGTQVTVSSLAEAKVLANRELDKYGVSDYYKNLINNAKTVEGVKALIDEILAALP
B10: the values for the Kd with rat serum albumin, with mouse serum albumin and with human serum albumin were 30 nM, ~200 nM and ~200 nM, respectively.
